Measured values as given in US20220033501A1 (SHANGHAI PHARMAEXPLORER, published 2022).

T1: human TIM-3 on CHOK1 stable cell line (CHOK1-hTIM-3) (human, UniProt Q8TDQ0 22-301)
T1 sequence: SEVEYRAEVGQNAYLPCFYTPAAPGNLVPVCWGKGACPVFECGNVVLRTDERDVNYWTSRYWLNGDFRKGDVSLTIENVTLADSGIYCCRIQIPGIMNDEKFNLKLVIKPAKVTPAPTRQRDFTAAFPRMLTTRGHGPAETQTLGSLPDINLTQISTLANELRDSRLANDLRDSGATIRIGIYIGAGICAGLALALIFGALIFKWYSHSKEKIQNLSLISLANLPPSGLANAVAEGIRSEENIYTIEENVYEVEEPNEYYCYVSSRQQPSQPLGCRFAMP

T2: human TIM-3 extracellular domain protein with hFc tag (hTIM-3-hFc) (human, UniProt Q8TDQ0 22-200)
T2 construct: not shown: human IgG Fc fragment (hFc) of the pCpC vector
T2 sequence: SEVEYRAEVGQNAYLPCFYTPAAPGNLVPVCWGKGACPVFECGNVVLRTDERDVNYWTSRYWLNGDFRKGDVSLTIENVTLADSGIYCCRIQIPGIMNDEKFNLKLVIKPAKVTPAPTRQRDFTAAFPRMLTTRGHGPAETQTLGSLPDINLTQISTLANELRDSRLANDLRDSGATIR

T3: murine TIM-3 extracellular domain protein with hFc tag (mTIM-3-hFc) (mouse, UniProt Q8VIM0 29-191)
T3 construct: also called mouse TIM-3 extracellular domain protein; not shown: human IgG Fc fragment (hFc) of the pCpC vector
T3 chain: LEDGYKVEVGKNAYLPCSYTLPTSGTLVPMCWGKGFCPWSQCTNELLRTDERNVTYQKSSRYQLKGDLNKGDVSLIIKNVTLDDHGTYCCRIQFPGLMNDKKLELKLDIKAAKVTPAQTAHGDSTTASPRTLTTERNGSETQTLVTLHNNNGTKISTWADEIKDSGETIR


What was measured:
[1] = target: T1, human TIM-3 on CHOK1 stable cell line …; experiment: FACS, CHOK1-hTIM-3 cells, 0 nM antibody
[2] = target: T1, human TIM-3 on CHOK1 stable cell line …; experiment: FACS, CHOK1-hTIM-3 cells, 0.064 nM antibody
[3] = target: T2, human TIM-3 extracellular domain …; experiment: ELISA, coated human TIM-3 ECD protein, 6.6667 nM antibody
[4] = target: T3, murine TIM-3 extracellular domain …; experiment: ELISA, coated mouse TIM-3 ECD protein, 0.0007 nM antibody
[5] = target: T3, murine TIM-3 extracellular domain …; experiment: ELISA, coated mouse TIM-3 ECD protein, 0.0067 nM antibody
[6] = target: T3, murine TIM-3 extracellular domain …; experiment: ELISA, coated mouse TIM-3 ECD protein, 6.6667 nM antibody

| Mean fluorescence intensity [1] | Mean fluorescence intensity [2] | OD450 [3] | OD450 [4] | OD450 [5] | OD450 [6] | Binder |
| --- | --- | --- | --- | --- | --- | --- |
| 2.9 | 22.2 | 2.99 | 0.24 | 0.24 | 0.44 | 34B6D8 fully human TIM-3 antibody (human IgG4, kappa) (antibody, V domains shown) VH: EVQLVESGGGLVQPGGSLRLSCAASGFTFSTYWMTWVRQAPGKRLEWVANIKQGGGDKYYVDSVKGRFTISTDNAKNSLYLQMNSLRAEDTAVYYCARGSNWFDPWGQGTLVTVSS VL: EIVMTQSPATLSMSPGERATLSCRASQSVYDNLAWYQQKPGQAPRLLIYGASTRATGIPARFSGSGSGTEFTLTISSLQSEDFALYYCQQYTHWPITFGQGTRLEIK |
| 2.8 | 27 | 2.95 | 0.23 | 0.23 | 0.41 | 39E5H1 fully human TIM-3 antibody (human IgG4, kappa) (antibody, V domains shown) VH: EVQLVESGGGLVQPGGSLRLSCAASGFTFSSYWMSWVRQAPGKGLEWVANIKRGGSERYYVDSVKGRFTISGDNAKNSVYLQMNSLRAEDTAVYYCARGSNWFDPWGQGTLVTVSS VL: ETVMTQSPAILSVSPGERATLSCRASQSVYSNLAWYQQKLGQAPRLLIYDASTRATGIPARFSGSGSGTEFTLTISSLQSEDFAVYYCQQYNNWPITFGQGTRLEIK |
